The source of these data is patent KR20150063728A (dated 2015).

For experiment [1], the target named is T1, FLAG-Tagging 된 hVEGF-C (Accession # P49767) (human, UniProt P49767 103-227, limits assumed).
T1 construct: also called FLAG-Tagging 된 VEGF-C; not shown: FLAG tag
T1 sequence (looked up): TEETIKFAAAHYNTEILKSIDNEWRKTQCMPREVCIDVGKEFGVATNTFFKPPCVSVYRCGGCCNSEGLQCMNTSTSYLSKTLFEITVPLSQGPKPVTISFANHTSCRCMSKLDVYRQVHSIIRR
Description: competitive ELISA: scFv inhibits FLAG-hVEGF-C binding to coated hVEGR-R3-Fc. For orientation: ELISA stands for enzyme-linked immunosorbent assay.

The target of experiment [2] is T2, 인간 VEGF-C 폴리펩타이드 (Human VEGF-C; R&D systems; Accession # P49767) (human, UniProt P49767 103-227).
T2 construct: Bought; also called hVEGF-C
T2 sequence (looked up): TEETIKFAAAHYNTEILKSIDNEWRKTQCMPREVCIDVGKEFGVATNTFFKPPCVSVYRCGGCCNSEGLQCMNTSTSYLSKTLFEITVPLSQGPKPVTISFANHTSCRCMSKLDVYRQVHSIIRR
As to the kind of experiment: ELISA, coated human VEGF-C, scFv detected with anti-HA-HRP; 50% binding concentration (Kd).

B1: SAIT-VEGFC-AB-4A2 (scFv 형태의 항-VEGF-C 항체) (scFv, V domains shown)
VH: EVQLLESGGGLVQPGGSLRLSCAASGFTFSSYDMSWVRQAPGKGLEWVSAISYDNGSTYYADSVKGRFTISRDNSKNTLYLQMNSLRAEDTAVYYCARDPYLARLNTFDYWGQGTLVTVSS
VL: QSVLTQPPSASGTPGQRVTISCSGSSSNIGSNNVSWYQQLPGTAPKLLIYYNSHRPSGVPDRFSGSKSGTSASLAISGLRSEDEADYYCATWDSSLNGYVFGGGTKLT
notes: Tested as library scFv (Ni-NTA purified, anti-HA detection)
The molecule B1 gave an IC50 in experiment [1] of 33.4 nM. This molecule showed a Kd in experiment [2] of 26.2 nM.

In general, IC50 refers to the concentration that gives 50% inhibition. Read a high IC50 as weaker potency in that assay. In general, Kd refers to the equilibrium constant for the complex coming apart. Higher therefore signals a looser complex.
